Measured values from IntAct's records for PubMed 25126958.

B1: Cell division control protein 45 (Saccharomyces cerevisiae), Q08032 (parent)
chain: MYYGISQFSEAYNKILRNSSSHSSCQLVIFVSCLNIDALCATKMLSLLFKKQLVQSQIVPIFGYSELRRHYSQLDDNINSLLLVGFGGVIDLEAFLEIDPQEYVIDTDEKSGEQSFRRDIYVLDAHRPWNLDNIFGSQIIQCFDDGTVDDTLGEQKEAYYKLLELDEESGDDELSGDENDNNGGDDEATDADEVTDEDEEDEDETISNKRGNSSIGPNDLSKRKQRKKQIHEYEGVLEEYYSQGTTVVNSISAQIYSLLSAIGETNLSNLWLNILGTTSLDIAYAQVYNRLYPLLQDEVKRLTPSSRNSVKTPDTLTLNIQPDYYLFLLRHSSLYDSFYYSNYVNAKLSLWNENGKKRLHKMFARMGIPLSTAQETWLYMDHSIKRELGIIFDKNLDRYGLQDIIRDGFVRTLGYRGSISASEFVEALTALLEVGNSTDKDSVKINNDNNDDTDGEEEEDNSAQKLTNLRKRWVSNFWLSWDALDDRKVELLNRGIQLAQDLQRAIFNTGVAILEKKLIKHLRIYRLCVLQDGPDLDLYRNPLTLLRLGNWLIECCAESEDKQLLPMVLASIDENTDTYLVAGLTPRYPRGLDTIHTKKPILNNFSMAFQQITAETDAKVRIDNFESSIIEIRREDLSPFLEKLTLSGLL
partner: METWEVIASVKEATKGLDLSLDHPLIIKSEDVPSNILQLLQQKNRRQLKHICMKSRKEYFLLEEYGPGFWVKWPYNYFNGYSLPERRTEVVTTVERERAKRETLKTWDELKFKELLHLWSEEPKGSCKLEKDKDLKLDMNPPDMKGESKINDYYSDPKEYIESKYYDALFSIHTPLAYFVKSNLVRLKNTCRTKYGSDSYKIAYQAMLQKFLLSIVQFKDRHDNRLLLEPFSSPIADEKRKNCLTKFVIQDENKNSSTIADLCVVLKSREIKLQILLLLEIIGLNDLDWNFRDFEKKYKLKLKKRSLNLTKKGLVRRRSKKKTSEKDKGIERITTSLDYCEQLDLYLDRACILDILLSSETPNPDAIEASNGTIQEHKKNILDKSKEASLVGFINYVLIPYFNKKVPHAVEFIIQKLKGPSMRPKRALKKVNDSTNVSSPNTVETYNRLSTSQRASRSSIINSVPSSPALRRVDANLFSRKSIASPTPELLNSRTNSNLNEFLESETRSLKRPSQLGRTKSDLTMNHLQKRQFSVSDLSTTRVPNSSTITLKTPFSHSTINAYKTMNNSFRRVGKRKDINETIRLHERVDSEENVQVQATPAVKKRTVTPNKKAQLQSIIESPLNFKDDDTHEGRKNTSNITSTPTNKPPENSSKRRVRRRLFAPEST

Variants of: B1
Conditions: with sld3_yeast SLD3, P53135

effect of a mutation on the interaction | Variant
disrupting interaction strength | D91N;D124N;D149N;D150N
